Reference: patent US20240197828A1, “Chimeric molecule to treat sepsis and other inflammatory conditions” (THE FEINSTEIN INSTITUTES FOR MEDICAL RESEARCH, priority 2022, published 2024)

Molecular target: T1, rmCIRP (Mus musculus, UniProt P60824)
T1 construct: purchased Cubasio Technology LLC CSB-EP613483He0
T1 sequence (P60824 1-172): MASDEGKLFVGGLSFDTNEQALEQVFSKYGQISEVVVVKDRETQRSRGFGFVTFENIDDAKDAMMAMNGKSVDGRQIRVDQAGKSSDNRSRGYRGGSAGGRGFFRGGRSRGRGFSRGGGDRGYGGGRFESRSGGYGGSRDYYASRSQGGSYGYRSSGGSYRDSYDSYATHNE
Assay: Surface plasmon resonance (Biacore/OpenSPR) binding to rmCIRP
Parameters: species or system murine
Conditions: rmCIRP immobilized, rmMFG-E8 analyte 15.7 to 250 nM, DPBS with Ca/Mg, 1% BSA, pH 7.4; read-out: equilibrium dissociation KD between rmCIRP and rmMFG-E8
Description: Computational modeling was used to determine the likely domain of MFG-E8's binding to eCIRP. The known amino acid (AA) sequence of this domain was used to develop and test potential therapeutic peptides. An MFG-E8 derived oligopeptide, MOP3, was developed based on 15 AA from MFG-E8 discoidin 2 domain (mimicking MFG-E8's C-terminal) and tagged with the 3 AA, RGD, (mimicking MFG-E8's binding capacity for the integrin receptor at the N-terminal). Binding of MOP3 to CIRP was quantified using Surface Plasmon Resonance (SPR) analysis. Macrophages (RAW264.7 cells) were treated with FITC-recombinant mouse (rm)-CIRP or co-incubated MOP3 and FITC-rmCIRP with and without a. Br-integrin Ab. After 1 h, cells were fixed and analyzed for intracellular FITC-rmCIRP by flow cytometry. Macrophages were stimulated with rmCIRP or co-incubated mixture of MOP3 and rmCIRP. After 4 h, cell culture supernatants were analyzed for inflammatory cytokine, TNFα. […]
To examine the direct interaction between rmCIRP and rmMFG-E8, surface plasmon resonance (SPR), OpenSPR (Nicoya), was performed between rmCIRP and rmMFG-E8. rmCIRP was immobilized on carboxyl sensor and rmMFG-E8 was injected as an analyte in concentrations of 15.7 nM to 250 nM. […] To evaluate binding, the analyte was injected into flow cell-1 and flow cell-2 and increasing concentrations and real-time interaction data were analyzed by TraceDrawer (Nicoya). […]

- Kd: 200 nM
B1: milk fat globule-epidermal growth factor—factor VIII (protein, listed as Mus musculus)
chain: MQVSRVLAALCGMLLCASGLFAASGDFCDSSLCLNGGTCLTGQDNDIYCLCPEGFTGLVCNETERGPCSPNPCYNDAKCLVTLDTQRGDIFTEYICQCPVGYSGIHCETETNYYNLDGEYMFTTAVPNTAVPTPAPTPDLSNNLASRCSTQLGMEGGAIADSQISASSVYMGFMGLQRWGPELARLYRTGIVNAWTASNYDSKPWIQVNLLRKMRVSGVMTQGASRAGRAEYLKTFKVAYSLDGRKFEFIQDESGGDKEFLGNLDNNSLKVNMFNPTLEAQYIKLYPVSCHRGCTLRFELLGCELHGCSEPLGLKNNTIPDSQMSASSSYKTWNLRAFGWYPHLGRLDNQGKINAWTAQSNSAKEWLQVDLGTQRQVTGIITQGARDFGHIQYVASYKVAHSDDGVQWTVYEEQGSSKVFQGNLDNNSHKKNIFEKPFMARYVRVLPVSWHNRITLRLELLGC
